Test results published in US20240336691A1 (PROMETHEUS BIOSCIENCES, published 2024).
Several values for one entry are separate records, joined by “and”; a condition that tells them apart may be missing. Identical values can stand only once.

B1: A212 (antibody, human IgG1, V domains shown)
VH: QVQLVQSGAEVKKPGASVKVSCKASGFDIQDTYMHWVRQRPGQGLEWIGRIDPASGHTKYDPKFQVRATITTDTSTSTAYLELSSLRSEDTAVYYCARSGGLPDVWGQGTTVTVSS
VL: EIVLTQSPGTLSLSPGERATLSCRASSSVSYMYWYQQKPGQAPRPLIYATSNLASGIPDRFSGSGSGTDFTLTISRLEPEDFAVYYCQQWEGNPRTFGGGTKLEIK
B2: A213 (antibody, human IgG1, V domains shown)
VH: QVQLVQSGAEVKKPGASVKVSCKASGFDIQDTYMHWVRQRPGQGLEWMGRIDPASGHTKYDPKFQVRVTITTDTSTSTVYMELSSLRSEDTAVYYCARSGGLPDVWGQGTTVTVSS
VL: EIVLTQSPGTLSLSPGERATLSCRASSSVSYMYWYQQKPGQAPRPLIYATSNLASGIPDRFSGSGSGTDFTLTISRLEPEDFAVYYCQQWEGNPRTFGGGTKLEIK
B3: A217 (antibody, human IgG1, V domains shown)
VH: QVQLVQSGAEVKKPGASVKVSCKASGFDIQDTYMHWVKQRPGQGLEWMGRIDPASGHTKYDPKFQVRVTITRDTSTSTVYMELSSLRSEDTAVYYCARSGGLPDVWGQGTTVTVSS
VL: EIVLTQSPGTLSLSPGERATLSCRASSSVSYMYWYQQKPGQAPRPLIYATSNLASGIPDRFSGSGSGTDFTLTISRLEPEDFAVYYCQQWEGNPRTFGGGTKLEIK
B4: A219 (antibody, V domains shown)
VH: QVQLVQSGAEVKKPGASVKVSCKASGFDIQDTYMHWVKQRPGQGLEWMGRIDPASGHTKYDPKFQVRVTITRDTSTSTVYLELSSLRSEDTAVYYCARSGGLPDVWGQGTTVTVSS
VL: EIVLTQSPGTLSLSPGERATLSCRASSSVSYMYWYQQKPGQAPRPLIYATSNLASGIPDRFSGSGSGTDFTLTISRLEPEDFAVYYCQQWEGNPRTFGGGTKLEIK
B5: A220 (antibody, human IgG1, V domains shown)
VH: QVQLVQSGAEVKKPGASVKVSCKASGFDIQDTYMHWVKQRPGQGLEWMGRIDPASGHTKYDPKFQVRVTMTRDTSTSTAYLELSSLRSEDTAVYYCARSGGLPDVWGQGTTVTVSS
VL: EIVLTQSPGTLSLSPGERATLSCRASSSVSYMYWYQQKPGQAPRPWIYATSNLASGIPDRFSGSGSGTDFTLTISRLEPEDFAVYYCQQWEGNPRTFGGGTKLEIK
B6: A147 (antibody, human IgG1, V domains shown)
VH: QVQLVQSGAEVKKPGASVKVSCKASGFDIQDTYMHWVKQRPGQGLEWMGRIEPASGHIKYDPKFQGRVTMTRDTSTSTVYMELSSLRSEDTAVYYCARSGGLPDWWGQGTTVTVSS
VL: EIVLTQSPGTLSLSPGERATLSCRASSSVSYMYWYQQKPGQAPRPLIYATSNLASGIPDRFSGSGSGTDFTLTISRLEPEDFAVYYCQQWEGNPRTFGGGTKLEIK
B7: anti-TL1A antibody A219 (antibody, V domains shown)
VH: QVQLVQSGAEVKKPGASVKVSCKASGFDIQDTYMHWVKQRPGQGLEWMGRIDPASGHTKYDPKFQVRVTITRDTSTSTVYLELSSLRSEDTAVYYCARSGGLPDVWGQGTTVTVSS
VL: EIVLTQSPGTLSLSPGERATLSCRASSSVSYMYWYQQKPGQAPRPLIYATSNLASGIPDRFSGSGSGTDFTLTISRLEPEDFAVYYCQQWEGNPRTFGGGTKLEIK

These binders were tested against T1, TL1A in human blood (endogenous) (human, UniProt O95150 72-251, limits assumed) (assay: cell-based or functional assay).
T1 sequence (looked up): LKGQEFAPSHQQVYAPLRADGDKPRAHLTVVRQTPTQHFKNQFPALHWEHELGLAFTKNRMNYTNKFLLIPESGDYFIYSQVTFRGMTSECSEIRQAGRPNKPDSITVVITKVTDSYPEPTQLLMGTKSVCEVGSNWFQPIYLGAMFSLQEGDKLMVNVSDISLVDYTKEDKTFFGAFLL

Binder | % Inhibition at 1 nM Ig of interferon gamma release in human blood [%] | % Inhibition at 10 nM Ig of interferon gamma release in human blood [%]
B1 | 46.8 | 71.2
B2 | 48.6 | 69.8
B3 | 46 | 72.2
B4 | 59.8 | 75.2
B5 | 36.9 | 63.2
B6 | 51.3 | 72.4

Each binder was assayed against T2, TL1A produced by cynomolgus monkey PBMCs in whole blood (cynomolgus monkey, UniProt G7PRK8 72-251) (assay: cell-based or functional assay).
T2 sequence: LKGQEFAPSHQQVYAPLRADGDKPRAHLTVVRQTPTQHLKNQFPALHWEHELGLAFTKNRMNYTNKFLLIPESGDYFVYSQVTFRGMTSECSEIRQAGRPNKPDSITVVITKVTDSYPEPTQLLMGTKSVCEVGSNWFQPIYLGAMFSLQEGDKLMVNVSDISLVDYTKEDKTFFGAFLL

Binder | mean IC50 for the inhibition of the IFN-γ response in monkey whole blood
B7 | 1.54 nM and 289 ng/mL
